Experimental data as given in the Human Domainome abundance scans (Beltran et al. 2025).
± gives the uncertainty stated by the source.

B1: Cytoplasmic polyadenylation element-binding protein 2, residues 513 to 575; numbered along this chain, Q7Z5Q1 (parent)
chain: KRVEVKPYVLDDQMCDECQGARCGGKFAPFFCANVTCLQYYCEFCWANIHSRAGREFHKPLVK

Variants of: B1
Assay: abundance fitness (aPCA) (normalised: wild type 0, dead -1); higher = more abundant; growth selection in yeast, the domain comes from the species named
Settings: Homo sapiens

Row | Variant | abundance fitness
1 | L61N | 0.033 ± 0.077
2 | L61I | 0.071 ± 0.072
3 | L61T | 0.076 ± 0.052
4 | L61F | -0.11 ± 0.079
5 | F44E | 0.033 ± 0.048
6 | F44V | 0.044 ± 0.046
7 | F44C | 0.053 ± 0.063
8 | F44D | -0.109 ± 0.1
9 | F44G | 0.015 ± 0.039
10 | F44Y | 0.059 ± 0.096
11 | F44S | -0.012 ± 0.038
12 | F44L | 0.007 ± 0.038
13 | F44N | -0.056 ± 0.055
14 | F44K | -0.046 ± 0.058
15 | S51W | -0.267 ± 0.054
16 | S51G | 0.051 ± 0.037
17 | G25H | -0.19 ± 0.061
18 | G25S | -0.138 ± 0.045
19 | G25T | -0.088 ± 0.045
20 | G25F | -0.118 ± 0.059
21 | G25V | -0.323 ± 0.044
22 | R55L | 0.04 ± 0.035
23 | R55A | -0.03 ± 0.052
24 | R55Q | -0.058 ± 0.073

Row | Variant | abundance fitness
25 | R55M | 0.031 ± 0.049
26 | R55F | 0.035 ± 0.051
27 | R55V | -0.1 ± 0.046
28 | W46C | -0.401 ± 0.084
29 | W46A | -0.503 ± 0.06
30 | W46M | -0.336 ± 0.092
31 | W46H | -0.328 ± 0.059
32 | W46R | -0.571 ± 0.07
33 | W46K | -0.829 ± 0.1
34 | W46L | -0.335 ± 0.052
35 | E17H | 0.018 ± 0.086
36 | E17G | -0.081 ± 0.042
37 | E17V | -0.061 ± 0.039
38 | R2C | -0.229 ± 0.092
39 | R2E | 0.067 ± 0.083
40 | R2Y | -0.513 ± 0.095
41 | R2P | 0.015 ± 0.068
42 | R2Q | -0.028 ± 0.071
43 | V35E | 0.063 ± 0.062
44 | V35M | -0.334 ± 0.09
45 | V35W | -0.29 ± 0.053
46 | V35T | 0.033 ± 0.053
47 | G54T | -0.112 ± 0.068
48 | G54L | -0.146 ± 0.046

Row | Variant | abundance fitness
49 | G54M | -0.299 ± 0.07
50 | G54H | -0.123 ± 0.094
51 | I49K | -0.127 ± 0.07
52 | I49W | -0.268 ± 0.096
53 | I49S | -0.015 ± 0.036
54 | I49E | -0.461 ± 0.23
55 | I49Y | 0.026 ± 0.051
56 | I49A | 0.017 ± 0.066
57 | I49M | -0.184 ± 0.1
58 | Y41E | -0.652 ± 0.081
59 | Y41N | -0.898 ± 0.3
60 | Y41L | 0.039 ± 0.039
61 | Y41Q | -0.433 ± 0.073
62 | Y41C | -0.365 ± 0.09
63 | Y40F | -0.087 ± 0.089
64 | Y40C | -0.411 ± 0.1
65 | Y40Q | -0.184 ± 0.09
66 | E43F | -0.298 ± 0.052
67 | E43H | -0.079 ± 0.084
68 | E43W | -0.136 ± 0.051
69 | E43D | -0.049 ± 0.083
70 | F27I | -0.218 ± 0.1
71 | F27G | -0.061 ± 0.042
72 | F27S | -0.022 ± 0.047

Row | Variant | abundance fitness
73 | F27H | -0.08 ± 0.11
74 | F27T | -0.053 ± 0.053
75 | F27N | -0.099 ± 0.089
76 | F27V | -0.035 ± 0.04
77 | R22F | -0.363 ± 0.088
78 | R22V | -0.343 ± 0.05
79 | R22K | 0.006 ± 0.06
80 | R22P | -0.504 ± 0.076
81 | R22L | -0.128 ± 0.044
82 | R22C | -0.419 ± 0.23
83 | R22Q | 0.1 ± 0.073
84 | R22M | -0.026 ± 0.066
85 | C15R | -0.606 ± 0.057
86 | C15M | -0.507 ± 0.069
87 | C15K | -0.649 ± 0.063
88 | C15H | -0.418 ± 0.13
89 | D16M | -0.089 ± 0.059
90 | D16I | 0.042 ± 0.073
91 | D16K | 0.056 ± 0.068
92 | D16S | 0.193 ± 0.036
93 | F31G | -0.685 ± 0.06
94 | F31C | -0.547 ± 0.082
95 | F31M | -0.461 ± 0.11
96 | F31D | -0.962 ± 0.23

Row | Variant | abundance fitness
97 | P29W | -0.293 ± 0.052
98 | P29R | -0.052 ± 0.038
99 | P29Y | -0.122 ± 0.053
100 | P29F | -0.31 ± 0.074
101 | P29D | -0.096 ± 0.1
102 | E56H | -0.158 ± 0.068
103 | E56S | -0.128 ± 0.044
104 | E56Q | -0.214 ± 0.08
105 | G20W | -0.686 ± 0.078
106 | G20F | -0.987 ± 0.12
107 | G20Y | -0.598 ± 0.11
108 | P7N | 0.01 ± 0.086
109 | P7M | -0.259 ± 0.064
110 | P7K | 0.046 ± 0.072
111 | P7Q | -0.098 ± 0.062
112 | P7W | -0.622 ± 0.058
113 | P7G | -0.141 ± 0.037
114 | P7Y | -0.405 ± 0.098
115 | P7T | -0.014 ± 0.05
116 | L10R | 0.046 ± 0.04
117 | L10K | 0.1 ± 0.062
118 | L10T | 0.045 ± 0.038
119 | L10G | 0.032 ± 0.052
120 | L10F | 0.009 ± 0.073

Row | Variant | abundance fitness
121 | C23Y | -0.38 ± 0.068
122 | C23Q | -0.24 ± 0.075
123 | C23M | -0.188 ± 0.063
124 | C23T | -0.095 ± 0.053
125 | C23S | -0.074 ± 0.035
126 | G24Y | -0.088 ± 0.071
127 | G24I | -0.418 ± 0.06
128 | G24P | -0.21 ± 0.06
129 | G24W | -0.278 ± 0.034
130 | G24E | 0.018 ± 0.053
131 | N34A | -0.028 ± 0.05
132 | N34E | 0.043 ± 0.044
133 | N34W | -0.2 ± 0.072
134 | N34P | -0.878 ± 0.11
135 | N34Q | -0.207 ± 0.078
136 | N34T | -0.175 ± 0.048
137 | N34F | -0.363 ± 0.062
138 | N34H | -0.438 ± 0.13
139 | F30D | -0.318 ± 0.087
140 | F30R | -0.09 ± 0.04
141 | M14A | -0.098 ± 0.057
142 | M14V | -0.085 ± 0.051
143 | M14L | -0.167 ± 0.042
144 | M14D | 0.039 ± 0.086

Row | Variant | abundance fitness
145 | Y8S | 0.121 ± 0.044
146 | Y8R | 0.064 ± 0.039
147 | Y8V | -0.086 ± 0.044
148 | Y8P | 0.075 ± 0.047
149 | L38C | 0.064 ± 0.058
150 | L38R | 0.056 ± 0.041
151 | L38M | 0.123 ± 0.064
152 | L38P | -0.706 ± 0.087
153 | L38T | -0.072 ± 0.059
154 | L38E | 0.077 ± 0.053
155 | L38Y | 0.174 ± 0.077
156 | V5T | 0.006 ± 0.044
157 | V5I | -0.113 ± 0.057
158 | V5C | -0.074 ± 0.042
159 | V5M | -0.011 ± 0.073
160 | V5L | -0.136 ± 0.039
161 | T36E | 0.108 ± 0.037
162 | T36K | -0.027 ± 0.045
163 | T36H | -0.061 ± 0.05
164 | T36N | -0.024 ± 0.057
165 | T36I | -0.09 ± 0.062
166 | T36L | -0.121 ± 0.035
167 | T36Y | -0.153 ± 0.069
